In the supplement of paper PMC10567573:

B1: C22orf31 (parent)
chain: YSLELGKAIKQKLWEALCSQGAIS

Variants of: B1
Test: protein stability index of a GFP-peptide fusion (GPS, HEK-293T) (PSI 1-6); higher = more stable
Details: c terminus: a fixed tail appended
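Further: lentivirally expressed fusions sorted by FACS into six bins by GFP to DsRed ratio, PSI derived from sequencing read proportions per bin multiplied by bin number.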

| Variant | protein stability index |
| --- | --- |
| S24A | 2.68 |
| S24Y | 3.7 |
| S24N | 2.63 |
| S24R | 2.69 |
| S24H | 2.01 |
| S24Q | 2.92 |
| G21F | 2.94 |
| G21N | 3.07 |
| G21A | 4.53 |
| G21D | 1.94 |
| E4L | 2.69 |
| E4N | 3.57 |
| E4G | 1.56 |
| E4W | 3.56 |
| E4K | 3.04 |
| E4V | 3.23 |
| E4D | 3.44 |
| E4I | 3.45 |
| E4S | 1.88 |
| E4H | 2.7 |
| E4Y | 3.11 |
| E4M | 2.42 |
| E4Q | 3.4 |
| L17Y | 2.06 |
| L17N | 1.86 |

| Variant | protein stability index |
| --- | --- |
| L17K | 2.11 |
| L17R | 2.25 |
| L17D | 2.62 |
| L17Q | 1.87 |
| L17F | 2.17 |
| L17S | 2.41 |
| L17T | 2.26 |
| L17G | 2.05 |
| L17W | 1.19 |
| L17M | 2.88 |
| L17P | 2.08 |
| L17E | 1.69 |
| L17V | 3.22 |
| L17C | 3.17 |
| L17I | 2.85 |
| K7C | 1.73 |
| K7V | 2.31 |
| K7D | 2.63 |
| K7E | 2.34 |
| K7I | 3.6 |
| K7T | 2.46 |
| K7Y | 2.1 |
| K7R | 1.6 |
| K7P | 2.68 |
| K7Q | 2 |

| Variant | protein stability index |
| --- | --- |
| Q11S | 2.01 |
| Q11G | 3.21 |
| Q11F | 3.62 |
| Q11P | 1.36 |
| Q11A | 2.47 |
| Q11I | 1.75 |
| Q11W | 3.82 |
| Q11R | 3.36 |
| Y1K | 3.44 |
| Y1H | 2.79 |
| Y1E | 1.22 |
| Y1N | 2.16 |
| Y1Q | 2.81 |
| Y1D | 1.87 |
| Y1C | 2.58 |
| Y1A | 1.69 |
| Y1F | 2.8 |
| Y1T | 3.1 |
| Y1V | 2.56 |
| Y1R | 2.88 |
| Y1L | 2.91 |
| G6F | 2.28 |
| G6P | 1.36 |
| G6A | 1.94 |
| G6Y | 2.27 |

| Variant | protein stability index |
| --- | --- |
| G6H | 1.59 |
| G6K | 1.73 |
| G6C | 2.16 |
| G6N | 1.91 |
| G6L | 2.97 |
| G6E | 2.03 |
| G6S | 1.25 |
| G6D | 1.9 |
| G6Q | 1.98 |
| G6W | 3.02 |
| C18G | 1.53 |
| C18M | 2.12 |
| C18S | 1.91 |
| C18K | 4.02 |
| C18P | 2.26 |
| C18A | 1.69 |
| C18N | 3.44 |
| C18Y | 2.52 |
| C18E | 2.17 |
| C18V | 2.29 |
| C18F | 1.64 |
| C18D | 2.09 |
| C18I | 3.32 |
| S19N | 3.94 |
| S19D | 1.88 |

| Variant | protein stability index |
| --- | --- |
| S19R | 2.46 |
| S19A | 4.18 |
| S19Q | 1.95 |
| S19C | 2.31 |
| S19F | 2.56 |
| I23D | 1.62 |
| I23S | 2.85 |
| I23H | 1.63 |
| I23A | 1.75 |
| I23P | 1.6 |
| I23E | 2.37 |
| A16W | 2.4 |
| A16Y | 1.89 |
| A16M | 2.69 |
| A16D | 1.98 |
| A16T | 3.32 |
| A16P | 2.3 |
| A16Q | 1.89 |
| A16R | 2.1 |
| A16E | 1.74 |
| A16G | 2.26 |
| A16H | 1.83 |
| A16S | 2.54 |
| S2D | 1.56 |
| S2A | 1.79 |

| Variant | protein stability index |
| --- | --- |
| S2M | 2.38 |
| S2H | 2.43 |
| S2Q | 1.57 |
| S2E | 1.59 |
| S2G | 2.35 |
| S2P | 2.3 |
| S2T | 2.86 |
| S2V | 1.12 |
| S2C | 2.15 |
| S2K | 2.68 |
| S2N | 2.79 |
| S2Y | 3.28 |
| L13N | 2.63 |
| L13Y | 1.56 |
| L13T | 1.88 |
| L13S | 2.24 |
| L13E | 3.05 |
| L13A | 1.41 |
| L13P | 2.04 |
| L13C | 1.35 |
| L13K | 1.47 |
| L13M | 2.17 |
| L13H | 2.48 |
| L13G | 1.88 |
| L13R | 2.05 |

| Variant | protein stability index |
| --- | --- |
| L13Q | 1.92 |
| L13F | 1.13 |
| L13I | 2.33 |
| I9K | 2.24 |
| I9A | 1.35 |
| I9Q | 1.94 |
| I9S | 1.97 |
| I9V | 2.26 |
| I9H | 2.07 |
| I9R | 1.87 |
| I9N | 2.07 |
| I9P | 1.99 |
| I9T | 2.38 |
| I9D | 2.39 |
| I9G | 1.84 |
| I9E | 2.97 |
| I9C | 1.79 |
| I9Y | 3.02 |
| K12Q | 2.26 |
| K12G | 1.07 |
| K12P | 1.51 |
| K12I | 3.58 |
| K12A | 3.38 |
| K12D | 1.56 |
| K12C | 2.03 |

| Variant | protein stability index |
| --- | --- |
| K12R | 1.53 |
| K12F | 2.11 |
| K12S | 1.39 |
| K12V | 2.49 |
| K12Y | 1.93 |
| K12T | 2.87 |
| K12W | 2.25 |
| Q20F | 1.95 |
| Q20G | 3.45 |
| Q20E | 2.79 |
| Q20V | 2.58 |
| Q20P | 2.21 |
| Q20I | 2.97 |
| Q20N | 1.62 |
| Q20R | 2.99 |
| A22R | 3.87 |
| A22K | 3.13 |
| A22S | 3.11 |
| A8Y | 2.97 |
| A8W | 1.81 |
| A8Q | 1.64 |
| A8T | 1.97 |
| A8P | 1.84 |
| A8G | 1.63 |
| A8N | 2.57 |

| Variant | protein stability index |
| --- | --- |
| A8H | 2.73 |
| A8S | 2.19 |
| A8M | 2.31 |
| A8F | 1.7 |
| A8E | 2.17 |
| K10E | 2.55 |
| K10D | 1.63 |
| K10Q | 2.64 |
| K10P | 2.27 |
| K10N | 2.54 |
| K10A | 1.52 |
| K10M | 2.22 |
| K10Y | 1.9 |
| K10C | 2.31 |
| K10I | 2.95 |
| W14Q | 1.83 |
| W14N | 2.21 |
| W14V | 3.18 |
| W14T | 1.98 |
| W14M | 2.24 |
| W14E | 2.52 |
| W14D | 3.34 |
| W14I | 3.71 |
| W14L | 3.37 |
| W14K | 2 |

| Variant | protein stability index |
| --- | --- |
| W14G | 3.06 |
| W14C | 1.62 |
| W14Y | 1.78 |
| W14S | 1.85 |
| W14A | 1.06 |
| L3V | 3.15 |
| L3H | 1.66 |
| L3G | 1.43 |
| L3F | 2.43 |
| L3E | 2.53 |
| L3P | 1.64 |
| L3Y | 2.44 |
| L3I | 1.79 |
| L3N | 2.19 |
| L3S | 1.75 |
| L3M | 2.18 |
| L3A | 2.39 |
| L3T | 1.89 |
| L5K | 2.64 |
| L5F | 4.05 |
| L5S | 1.5 |
| L5G | 1.82 |
| L5P | 1.62 |
| L5M | 2.14 |
| L5Q | 1.35 |

| Variant | protein stability index |
| --- | --- |
| L5A | 1.83 |
| L5H | 2.19 |
| L5N | 1.59 |
| L5Y | 1.86 |
| L5D | 2.11 |
| L5I | 3.07 |
| L5T | 1.75 |
| L5W | 1.96 |
| E15W | 1.9 |
| E15C | 3 |
| E15Q | 1.41 |
| E15S | 2.19 |
| E15P | 2.25 |
| E15H | 1.65 |
| E15R | 3.18 |
| E15T | 1.64 |
| E15G | 1.31 |
